Test results as given in patent US20240116985A1, “STAPLED PEPTIDES AND METHODS THEREOF” (priority 2020, published 2024).
One block for each binder: values may come before it. Starred links: 1 amine or outer side, 2 acyl side, 3 side chain; linkers in the order of their positions; H or OH if unused. Positions of bridges follow the written chain, without caps; N, C: chain ends. Non-standard residues stand in square brackets, D forms with d. Primed or numbered codes have the meaning given here. PyrS2″ = (S)-3-amino-1-((pent-4-en-1-yloxy)carbonyl)pyrrolidine-3-carboxylic acid (stapling residue), C=CCCCOC(=O)N1CC[C@@](N[*:1])(C(=O)[*:2])C1; B5(4) = 2,2-bis(4-pentenyl)glycine = 2-amino-2-(pent-4-en-1-yl)hept-6-enoic acid (stitching residue), C=CCCCC(CCCC=C)(N[*:1])C(=O)[*:2]; B5(5) = 2,2-bis(4-pentenyl)glycine, 2-amino-2-(pent-4-en-1-yl)hept-6-enoic acid (stitching residue), C=CCCCC(CCCC=C)(N[*:1])C(=O)[*:2]; PyrS2 = (S)-3-amino-1-((pent-4-en-1-yloxy)carbonyl)pyrrolidine-3-carboxylic acid, C=CCCCOC(=O)N1CC[C@@](N[*:1])(C(=O)[*:2])C1; B5(19) = 2-amino-2-(pent-4-en-1-yl)hept-6-enoic acid (bis(4-pentenyl)glycine), C=CCCCC(CCCC=C)(N[*:1])C(=O)[*:2]; B5(25) = 2-amino-2-(pent-4-en-1-yl)hept-6-enoic acid (stitching residue), C=CCCCC(CCCC=C)(N[*:1])C(=O)[*:2]; B5(3) = 2,2-bis(4-pentenyl)glycine (stitching residue), C=CCCCC(CCCC=C)(N[*:1])C(=O)[*:2]; B5 = 2-amino-2-(pent-4-en-1-yl)hept-6-enoic acid, C=CCCCC(CCCC=C)(N[*:1])C(=O)[*:2]; RbGlu = 3-aminopentanedioic acid, R/S prefix not explained; SbGlu = 3-aminopentanedioic acid, R/S prefix not explained; Phe(3-COOH) = N[C@@H](Cc1cccc(C(=O)O)c1)C(=O)O; Trp(5-F) = N[C@@H](Cc1c[nH]c2ccc(F)cc12)C(=O)O; Phe(2-CF3) = N[C@@H](Cc1ccccc1C(F)(F)F)C(=O)O; Trp(1-Me) = Cn1cc(C[C@H](N)C(=O)O)c2ccccc21; Phe(2-Cl) = N[C@@H](Cc1ccccc1Cl)C(=O)O; 1Nal = N[C@@H](Cc1cccc2ccccc12)C(=O)O; Bta = N[C@@H](Cc1csc2ccccc12)C(=O)O; αAllylPro = C=CC[C@@]1(C(=O)O)CCCN1; tBuAla = CC(C)(C)C[C@H](N)C(=O)O; 3Thi = N[C@@H](Cc1ccsc1)C(=O)O; Cha = N[C@@H](CC1CCCCC1)C(=O)O; S8 = C=CCCCCCC[C@](C)(N)C(=O)O; Thr(ol) = C[C@@H](O)[C@H](N)CO; Phe(ol) = N[C@H](CO)Cc1ccccc1; R5 = C=CCCC[C@@](C)(N)C(=O)O; Nle = CCCC[C@H](N)C(=O)O

What was measured:
[1] = target: full-length beta-Catenin (Uniprot ID P35222) (Homo sapiens (Human)) (UniProt P35222); assay: fluorescence polarization competition; full-length beta-catenin + 5FAM-TCF4(10-53) probe as competitor
Target sequence in this assay (P35222 2-781 limits assumed): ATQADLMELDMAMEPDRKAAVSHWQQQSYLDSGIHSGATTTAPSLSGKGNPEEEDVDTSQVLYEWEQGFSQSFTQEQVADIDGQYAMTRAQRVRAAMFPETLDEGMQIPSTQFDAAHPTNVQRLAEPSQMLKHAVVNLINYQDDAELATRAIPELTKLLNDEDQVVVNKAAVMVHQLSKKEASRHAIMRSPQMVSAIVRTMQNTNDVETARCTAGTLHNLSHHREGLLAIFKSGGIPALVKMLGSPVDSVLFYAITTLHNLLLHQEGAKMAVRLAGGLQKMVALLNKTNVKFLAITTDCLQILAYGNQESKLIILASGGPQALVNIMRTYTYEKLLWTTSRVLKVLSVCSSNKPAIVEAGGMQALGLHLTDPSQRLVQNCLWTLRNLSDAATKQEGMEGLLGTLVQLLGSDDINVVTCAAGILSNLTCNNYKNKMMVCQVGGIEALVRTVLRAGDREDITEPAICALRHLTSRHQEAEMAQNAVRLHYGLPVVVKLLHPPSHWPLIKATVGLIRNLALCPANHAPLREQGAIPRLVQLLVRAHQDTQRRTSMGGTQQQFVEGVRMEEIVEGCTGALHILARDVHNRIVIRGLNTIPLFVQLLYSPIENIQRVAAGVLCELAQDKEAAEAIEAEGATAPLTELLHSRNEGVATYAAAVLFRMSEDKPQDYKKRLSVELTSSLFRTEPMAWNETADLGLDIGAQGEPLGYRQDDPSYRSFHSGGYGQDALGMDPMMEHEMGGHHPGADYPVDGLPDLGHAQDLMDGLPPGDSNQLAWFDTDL

[2] = target: full-length beta-Catenin (Uniprot ID P35222) (Homo sapiens (Human)) (UniProt P35222); assay: fluorescence polarization competition; displacement of 5FAM-TCF4(10-53) from full-length beta-catenin
Target sequence in this assay (P35222 whole entry, one chain of several): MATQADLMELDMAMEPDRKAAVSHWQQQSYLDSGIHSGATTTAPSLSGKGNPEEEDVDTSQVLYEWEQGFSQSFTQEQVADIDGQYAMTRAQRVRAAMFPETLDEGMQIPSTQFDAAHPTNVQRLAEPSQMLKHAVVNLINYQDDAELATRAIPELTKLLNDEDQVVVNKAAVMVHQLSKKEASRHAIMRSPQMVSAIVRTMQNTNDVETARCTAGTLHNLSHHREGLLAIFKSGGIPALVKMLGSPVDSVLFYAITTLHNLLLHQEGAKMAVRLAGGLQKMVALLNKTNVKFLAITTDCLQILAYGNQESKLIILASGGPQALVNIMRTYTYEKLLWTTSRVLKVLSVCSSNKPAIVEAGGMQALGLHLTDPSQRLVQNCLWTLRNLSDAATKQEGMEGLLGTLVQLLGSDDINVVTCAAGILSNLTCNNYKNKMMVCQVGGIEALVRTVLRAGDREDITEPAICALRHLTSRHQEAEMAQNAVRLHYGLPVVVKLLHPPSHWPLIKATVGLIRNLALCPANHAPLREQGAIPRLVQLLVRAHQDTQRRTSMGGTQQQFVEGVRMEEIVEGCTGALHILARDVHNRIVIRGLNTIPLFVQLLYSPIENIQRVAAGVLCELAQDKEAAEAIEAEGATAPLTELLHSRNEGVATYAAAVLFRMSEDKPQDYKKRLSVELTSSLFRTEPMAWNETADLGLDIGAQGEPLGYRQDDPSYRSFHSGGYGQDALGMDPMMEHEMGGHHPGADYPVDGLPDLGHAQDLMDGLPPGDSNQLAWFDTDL

[3] = target: Bcat-Halo (UniProt P35222); assay: NanoBRET Abs IC50 in HEK293 cells; Bcat-Halo with TCF4-Luc as competitor
[4] = target: full-length beta-Catenin (Uniprot ID P35222) (Homo sapiens (Human)) (UniProt P35222); assay: fluorescence polarization competition; full-length beta-catenin + 5FAM-TCF4 10-53 probe
Target sequence in this assay (P35222 2-781 limits assumed): as the sequence (P35222 2-781 limits assumed) above

[5] = target: full-length beta-Catenin (Uniprot ID P35222) (Homo sapiens (Human)) (UniProt P35222); assay: fluorescence polarization competition; full-length beta-catenin + 5FAM-TCF4(10-53) probe
Target sequence in this assay (P35222 whole entry, one chain of several): as the sequence (P35222 whole entry, one chain of several) above

[6] = target: full-length beta-Catenin (Uniprot ID P35222) (Homo sapiens (Human)) (UniProt P35222); assay: fluorescence polarization competition; peptide titrated against 10 nM full-length beta-catenin + 10 nM 5FAM-TCF4(10-53)
Target sequence in this assay (P35222 2-781 limits assumed): as the sequence (P35222 2-781 limits assumed) above

[7] = target: full-length beta-Catenin (Uniprot ID P35222) (Homo sapiens (Human)) (UniProt P35222); assay: fluorescence polarization competition; full-length beta-catenin, competitor 5FAM-TCF4(10-53) probe
[8] = target: full-length beta-Catenin (Uniprot ID P35222) (Homo sapiens (Human)) (UniProt P35222); assay: fluorescence polarization competition, full-length beta-catenin with 5FAM-TCF4(10-53) probe as competitor
Target sequence in this assay (P35222 2-781 limits assumed): as above

[9] = target: full-length beta-Catenin (Uniprot ID P35222) (Homo sapiens (Human)) (UniProt P35222); assay: fluorescence polarization competition; peptide displaces 5FAM-TCF4(10-53) from full-length beta-catenin
Target sequence in this assay (P35222 2-781 limits assumed): as above

[10] = target: B-cat-Halo (beta-catenin HaloTag NanoBRET construct expressed in HEK293 cells) (UniProt P35222); assay: NanoBRET in HEK293 cells, Bcat-Halo + TCF4-Luc, peptide at 10 uM
[11] = target: full-length beta-Catenin (Uniprot ID P35222) (Homo sapiens (Human)) (UniProt P35222); assay: fluorescence polarization competition: peptide titrated against 10 nM full-length beta-catenin + 10 nM 5FAM-TCF4(10-53) probe
Target sequence in this assay (P35222 2-781 limits assumed): as above

[12] = target: full-length beta-Catenin (Uniprot ID P35222) (Homo sapiens (Human)) (UniProt P35222); assay: cell-based or functional assay
[13] = target: full-length beta-Catenin (Uniprot ID P35222) (Homo sapiens (Human)) (UniProt P35222); assay: FP competition, full-length beta-catenin, competitor probe 5FAM-TCF4 10-53
[14] = target: full-length beta-Catenin (Uniprot ID P35222) (Homo sapiens (Human)) (UniProt P35222); assay: fluorescence polarization competition; 10 nM full-length beta-catenin with 10 nM 5FAM-TCF4(10-53) probe as competitor
[15] = target: full-length beta-Catenin (Uniprot ID P35222) (Homo sapiens (Human)) (UniProt P35222); assay: fluorescence polarization competition; competitor 5FAM-TCF4(10-53) on full-length beta-catenin
Target sequence in this assay (P35222 whole entry, one chain of several): as the sequence (P35222 whole entry, one chain of several) above

[16] = target: full-length beta-Catenin (Uniprot ID P35222) (Homo sapiens (Human)) (UniProt P35222); assay: fluorescence polarization competition; peptide titrated against 5FAM-TCF4(10-53) bound to full-length beta-catenin
Target sequence in this assay (P35222 whole entry, one chain of several): as above

Chain of B-cat-Halo (beta-catenin HaloTag NanoBRET construct expressed in HEK293 cells) (P35222 whole entry): as the sequence (P35222 whole entry, one chain of several) above
Chain of Bcat-Halo (P35222 whole entry): as the sequence (P35222 whole entry, one chain of several) above

- EC50 [1]: 23 nM
- IC50 [2]: 23 nM
- IC50 [3]: > 20000 nM
B1: I-1106 (peptide)
peptide: Ac-[αAllylPro]D[tBuAla][B5(5)]DDAAFS[PyrS2″][Cha][Bta]S-NH2
modifications: staple 1-4, 4-11

- IC50 [4]: 31 nM
- EC50 [5]: 31 nM
B2: I-1304 (peptide)
peptide: Ac-[αAllylPro]N[tBuAla][B5(4)]DDAAFL[PyrS2][3Thi][Bta][Thr(ol)]
modifications: staple 1-4, 4-11

- IC50 [6]: 8 nM
- EC50 [1]: 8 nM
- IC50 [3]: 18800 nM
B3: I-1083 (peptide)
peptide: Ac-[αAllylPro]D[tBuAla][B5(3)]DDAAFN[PyrS2″][Phe(2-Cl)][Bta][Phe(ol)]
modifications: staple 1-4, 4-11

- IC50 [7]: 46 nM
- EC50 [8]: 46 nM
B4: I-657 (peptide)
peptide: Ac-[αAllylPro]DI[B5(4)]DE[Nle]AFQ[S8]F[Bta]Q-NH2
modifications: staple 1-4, 4-11

- IC50 [4]: 21 nM
- EC50 [7]: 21 nM
B5: I-1307 (peptide)
peptide: Ac-[αAllylPro]D[Cha][B5(4)]DDAAFL[PyrS2″][Phe(2-Cl)][Bta][Thr(ol)]
modifications: staple 1-4, 4-11

- IC50 [7]: 4520 nM
- EC50 [8]: 4520 nM
B6: I-675 (peptide)
peptide: Ac-[αAllylPro]DI[B5(4)][RbGlu]EAAFQ[S8]F[Bta]Q-NH2
modifications: staple 1-4, 4-11

- IC50 [4]: 124 nM
- EC50 [7]: 124 nM
B7: I-1310 (peptide)
peptide: Ac-[αAllylPro]D[Cha][B5(4)]DTAAFT[PyrS2″][Phe(2-Cl)][Bta][Thr(ol)]
modifications: staple 1-4, 4-11

- IC50 [9]: 6 nM
- NanoBRET % inh @ 10 uM [10]: 31%
- EC50 [11]: 6 nM
B8: I-785 (peptide)
peptide: Ac-[αAllylPro]D[tBuAla][B5(3)]DDAAFN[PyrS2][3Thi][Bta]-NH2
modifications: staple 1-4, 4-11

- IC50 [4]: 86 nM
- EC50 [5]: 86 nM
B9: I-1303 (peptide)
peptide: Ac-[αAllylPro]D[tBuAla][B5(4)]DDAAFF[PyrS2][3Thi][Bta][Thr(ol)]
modifications: staple 1-4, 4-11

- IC50 [4]: 45 nM
- EC50 [5]: 45 nM
B10: I-1302 (peptide)
peptide: Ac-[αAllylPro]D[tBuAla][B5(4)]DDAAFL[PyrS2][3Thi][Bta][Thr(ol)]
modifications: staple 1-4, 4-11

- IC50 [7]: 73 nM
- EC50 [8]: 73 nM
B11: I-656 (peptide)
peptide: Ac-[αAllylPro]DI[B5(4)]DE[Nle]AFQ[S8]F[Bta]Q-NH2
modifications: staple 1-4, 4-11

- IC50 [6]: 9 nM
- DLD1 reporter assay Abs IC50 [12]: > 20000 nM
- EC50 [1]: 9 nM
- IC50 [3]: 9300 nM
B12: I-1087 (peptide)
peptide: Ac-[αAllylPro]D[tBuAla][B5(3)]DDAAFT[S8][Phe(2-Cl)][Bta]Q-NH2
modifications: staple 1-4, 4-11; also: later eluting staple isomer

- IC50 [7]: 585 nM
- EC50 [8]: 585 nM
B13: I-667 (peptide)
peptide: Ac-[αAllylPro]DI[B5(4)]DEA[Nle]FQ[S8]F[Bta]Q-NH2
modifications: staple 1-4, 4-11

- EC50 [1]: 36 nM
- IC50 [2]: 36 nM
- IC50 [3]: > 20000 nM
B14: I-1105 (peptide)
peptide: Ac-[αAllylPro]D[tBuAla][B5(5)]DDAA[Cha]S[PyrS2″]F[Bta]S-NH2
modifications: staple 1-4, 4-11

- IC50 [7]: 626 nM
- EC50 [8]: 626 nM
B15: I-666 (peptide)
peptide: Ac-[αAllylPro]DI[B5(19)]DEA[Nle]FQ[S8]F[Bta]Q-NH2
modifications: staple 1-4, 4-11

- IC50 [7]: 5000 nM
- EC50 [8]: 5000 nM
B16: I-672 (peptide)
peptide: Ac-[αAllylPro][SbGlu]I[B5(4)]DEAAFQ[S8]F[Bta]Q-NH2
modifications: staple 1-4, 4-11

- IC50 [4]: 59 nM
- EC50 [7]: 59 nM
B17: I-1309 (peptide)
peptide: Ac-[αAllylPro]D[tBuAla][B5(4)]DTAAFT[PyrS2″][Phe(2-Cl)][Bta][Thr(ol)]
modifications: staple 1-4, 4-11

- IC50 [13]: 150 nM
- EC50 [7]: 150 nM
B18: I-1343 (peptide)
peptide: Ac-[αAllylPro]D[tBuAla][B5(4)]D[Phe(3-COOH)]AAFF[PyrS2″][Phe(2-CF3)][Bta][Thr(ol)]
modifications: staple 1-4, 4-11

- DLD1 reporter assay Abs IC50 [12]: > 20000 nM
- EC50 [1]: 40 nM
- IC50 [2]: 40 nM
- IC50 [3]: > 20000 nM
B19: I-1097 (peptide)
peptide: Ac-[αAllylPro]D[tBuAla][B5(5)]DDAAFL[S8][Phe(2-Cl)][Bta][dT]-NH2
modifications: staple 1-4, 4-11

- IC50 [7]: 5000 nM
- EC50 [8]: 5000 nM
B20: I-676 (peptide)
peptide: Ac-[αAllylPro]DI[B5(4)][SbGlu]EAAFQ[S8]F[Bta]Q-NH2
modifications: staple 1-4, 4-11

- IC50 [6]: 5 nM
- DLD1 reporter assay Abs IC50 [12]: 4800 nM
- EC50 [1]: 5 nM
- IC50 [3]: 14100 nM
B21: I-1082 (peptide)
peptide: Ac-[αAllylPro]D[tBuAla][B5(3)]DDAAFN[PyrS2″][Phe(2-Cl)][Bta][Thr(ol)]
modifications: staple 1-4, 4-11

- NanoBRET % inh @ 10 uM [10]: 0.9%
- EC50 [11]: 92 nM
- IC50 [14]: 92 nM
B22: I-799 (peptide)
peptide: Ac-[αAllylPro]D[tBuAla][B5]DDAAFN[PyrS2][3Thi][Trp(1-Me)]H-NH2
modifications: staple 1-4, 4-11

- NanoBRET % inh @ 10 uM [10]: 8.1%
- EC50 [11]: 79 nM
- IC50 [14]: 79 nM
B23: I-800 (peptide)
peptide: Ac-[αAllylPro]D[tBuAla][B5]DDAAFN[PyrS2][3Thi][Trp(5-F)]H-NH2
modifications: staple 1-4, 4-11

- EC50 [1]: 9 nM
- IC50 [2]: 9 nM
- IC50 [3]: 9000 nM
B24: I-1099 (peptide)
peptide: Ac-[αAllylPro]D[tBuAla][B5(5)]DDAAFS[PyrS2″]F[Bta]S-NH2
modifications: staple 1-4, 4-11

- IC50 [15]: 234 nM
B25: I-2573 (peptide)
peptide: Ac-P[R5]D[tBuAla][B5(25)]D[Phe(3-COOH)]AAFL[PyrS2″][Phe(2-CF3)][Bta]Q-NH2
modifications: staple 5-12, 2-5; also: staple -CH=CH- reduced to -CH2-CH2-

- IC50 [16]: 31 nM
B26: I-1890 (peptide)
peptide: Ac-[αAllylPro]D[tBuAla][B5(5)]DRAAFN[PyrS2][3Thi][Bta]Q-NH2
modifications: staple 1-4, 4-11; not fully specified; printed as Ac-PL3-Asp-Npg-B5-Asp-Arg-Ala-Ala-Phe-Asn-PyrS2-3Thi-BztA-Gln-NH2

- IC50 [4]: 38 nM
- EC50 [7]: 38 nM
B27: I-1311 (peptide)
peptide: Ac-[αAllylPro]D[tBuAla][B5(4)]DDAAFF[PyrS2″][Phe(2-Cl)][Bta][Thr(ol)]
modifications: staple 1-4, 4-11

- IC50 [9]: 19 nM
- NanoBRET % inh @ 10 uM [10]: 9.7%
- EC50 [11]: 19 nM
B28: I-789 (peptide)
peptide: Ac-[αAllylPro]D[tBuAla][B5(3)]DDAAFN[PyrS2][3Thi][1Nal]H-NH2
modifications: staple 1-4, 4-11
